Source: patent publication US20240301031A1 (JIANGSU HENGRUI PHARMACEUTICALS, published 2024)

Assays:
[1] = molecular target: T1, IL-23 (R&D Systems, 1290-IL-010) (UniProt Q9NPF7 20-189; P29460 23-328); assay: cell-based or functional assay
T1 sequence (looked up) 1: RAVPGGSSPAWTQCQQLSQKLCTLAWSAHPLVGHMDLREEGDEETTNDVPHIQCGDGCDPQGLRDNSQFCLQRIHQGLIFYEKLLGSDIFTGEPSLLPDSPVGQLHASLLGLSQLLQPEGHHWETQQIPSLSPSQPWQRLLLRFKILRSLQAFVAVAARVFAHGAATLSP
T1 sequence (looked up) 2: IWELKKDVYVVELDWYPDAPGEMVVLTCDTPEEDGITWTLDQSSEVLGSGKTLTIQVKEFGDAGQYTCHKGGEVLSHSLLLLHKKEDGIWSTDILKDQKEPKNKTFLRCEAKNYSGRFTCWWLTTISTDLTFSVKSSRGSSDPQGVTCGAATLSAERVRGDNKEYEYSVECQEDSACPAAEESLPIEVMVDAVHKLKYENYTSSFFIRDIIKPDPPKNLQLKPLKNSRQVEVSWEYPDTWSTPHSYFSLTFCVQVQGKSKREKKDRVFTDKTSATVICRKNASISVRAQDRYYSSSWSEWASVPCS

[2] = molecular target: T2, IL-12/23 p40 (Sino biological, 10052-H08H) (UniProt P29460 23-328); assay: ELISA, IL-12/23 p40 coated, sample titrated
T2 construct: Bought protein
T2 sequence (looked up): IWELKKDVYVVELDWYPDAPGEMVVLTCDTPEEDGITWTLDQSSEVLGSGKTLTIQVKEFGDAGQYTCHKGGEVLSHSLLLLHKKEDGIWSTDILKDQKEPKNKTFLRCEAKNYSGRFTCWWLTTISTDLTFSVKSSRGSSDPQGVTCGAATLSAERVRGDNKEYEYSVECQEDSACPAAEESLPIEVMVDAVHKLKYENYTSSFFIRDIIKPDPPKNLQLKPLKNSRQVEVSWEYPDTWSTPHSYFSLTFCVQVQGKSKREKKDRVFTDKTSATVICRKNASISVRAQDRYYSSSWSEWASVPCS
Experimental: The binding activity of the antibodies or fusion proteins for BAFF, APRIL, and IL-12/23 p40 was assayed by the ELISA method (coating an antigen protein). The specific procedures were as follows:
A BAFF (Sino biological, 10056-HNCH), APRIL (R&D Systems, 5860-AP-010/CF), or IL-12/23 p40 (Sino biological, 10052-H08H) protein was diluted to 1 μg/mL with a PBS (BasalMedia, B320) buffer at pH 7.4, and added to a 96-well microplate (Corning, 3590) at 100 μL/well. The plate was incubated at 4° C. overnight. After the liquid was discarded, 300 μL of 5% skim milk (BD, 232100) diluted with PBS was added to each well for blocking, and the plate was incubated at 37° C. for 2 h. After the blocking was completed, the blocking solution was discarded, and the plate was washed 3 times with a PBST buffer (PBS at pH 7.4 containing 0.1% tween-20). 100 μL of test antibody or fusion protein solution diluted in a gradient was added to each well, and the plate was incubated at 37° C. for 1 h. After the incubation was completed, the plate was washed 3 times with PBST. […] The plate was washed 3 times with PBST. […] The plate was read for absorbance values at 450 nm on a microplate reader, the binding curves of the antibodies to an antigen were fitted with software, and the EC₅₀ values were calculated.

[3] = molecular target: T2, IL-12/23 p40 (Sino biological, …); assay: competition ELISA: biotin-labeled p40 to coated IL-12Rβ1
Experimental: A receptor protein was diluted to 2 μg/mL with PBS at pH 7.4 (BasalMedia, B320) and added to a 96-well microplate (Corning, 3590) at 100 μL/well. The plate was incubated at 4° C. overnight. After the liquid was discarded, 200 μL of 1% Casein blocking solution (Thermo, 37528) was added to each well for blocking, and the plate was incubated at 37° C. for 2 h. After the blocking was completed, the blocking solution was discarded, and the plate was washed 3 times with a PBST buffer (PBS at pH 7.4 containing 0.1% tween-20) for later use. A biotin-labeled ligand protein at a fixed concentration was mixed with the antibody or fusion protein diluted in gradient, pre-incubated at 37° C. for 30 min, and added to a blocked microplate. The plate was incubated at 37° C. for 1.5 h. After the incubation was completed, the plate was washed 3 times with PBST. 100 μL of streptavidin-HRP (Invitrogen, 434323, diluted at a ratio of 1:4000) was added to each well, and the plate was incubated at 37° C. for 1 h. The supernatant was removed, and the plate was washed 3 times with PBST. […] The plate was read for absorbance values at 450 nm on a microplate reader, the curves for the inhibition of the binding of the ligands to the receptors were fitted with software, and the IC₅₀ values were calculated. […]

[4] = molecular target: T3, human APRIL (5860-AP-010/CF, R&D Systems) (human, UniProt O75888 115-250, limits assumed); assay: ELISA, APRIL coated
T3 construct: Bought protein
T3 sequence (looked up): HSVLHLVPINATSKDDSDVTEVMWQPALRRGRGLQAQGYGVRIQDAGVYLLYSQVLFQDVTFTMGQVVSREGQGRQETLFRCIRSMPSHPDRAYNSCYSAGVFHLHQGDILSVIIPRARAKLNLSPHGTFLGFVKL

[5] = molecular target: T4, human IL-23 (CT048-H08H, Sino biological) (human, UniProt Q9NPF7 20-189; P29460 23-328); assay: SPR (Biacore), sample captured on Protein A, antigen flowed, 1:1 fit
T4 construct: Bought heterodimer
T4 sequence (looked up) 1: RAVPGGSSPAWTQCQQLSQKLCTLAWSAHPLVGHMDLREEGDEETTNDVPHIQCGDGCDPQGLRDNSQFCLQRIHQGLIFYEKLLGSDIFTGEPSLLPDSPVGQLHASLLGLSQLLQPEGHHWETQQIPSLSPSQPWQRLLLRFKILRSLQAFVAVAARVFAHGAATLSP
T4 sequence (looked up) 2: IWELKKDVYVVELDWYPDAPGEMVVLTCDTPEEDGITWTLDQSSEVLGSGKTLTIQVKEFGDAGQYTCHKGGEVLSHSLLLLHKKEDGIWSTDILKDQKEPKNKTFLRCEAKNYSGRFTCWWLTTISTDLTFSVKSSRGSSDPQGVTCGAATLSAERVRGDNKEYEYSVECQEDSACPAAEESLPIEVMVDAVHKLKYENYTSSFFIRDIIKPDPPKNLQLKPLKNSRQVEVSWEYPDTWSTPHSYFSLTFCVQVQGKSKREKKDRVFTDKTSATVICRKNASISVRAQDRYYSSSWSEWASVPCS

[6] = molecular target: T5, human IL-12 (CT050-H08H, Sino biological) (human, UniProt P29459 23-219; P29460 23-328); assay: as above
T5 construct: Bought heterodimer
T5 sequence (looked up) 1: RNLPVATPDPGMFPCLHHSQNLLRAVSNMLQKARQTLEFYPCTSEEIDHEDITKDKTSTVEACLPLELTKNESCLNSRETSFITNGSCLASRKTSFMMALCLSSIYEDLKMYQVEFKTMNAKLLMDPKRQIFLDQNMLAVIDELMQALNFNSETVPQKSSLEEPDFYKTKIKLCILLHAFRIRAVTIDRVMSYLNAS
T5 sequence (looked up) 2: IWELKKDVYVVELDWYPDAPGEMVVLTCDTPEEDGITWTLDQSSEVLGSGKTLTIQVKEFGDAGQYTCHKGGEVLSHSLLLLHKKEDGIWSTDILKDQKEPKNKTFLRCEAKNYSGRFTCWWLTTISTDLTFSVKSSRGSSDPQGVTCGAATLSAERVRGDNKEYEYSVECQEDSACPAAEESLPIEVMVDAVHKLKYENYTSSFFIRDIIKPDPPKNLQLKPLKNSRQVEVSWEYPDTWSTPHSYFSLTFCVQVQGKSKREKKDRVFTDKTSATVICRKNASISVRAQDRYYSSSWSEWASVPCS

[7] = molecular target: T6, cynomolgus monkey p40 (10215-CL, R&D Systems) (cynomolgus monkey); assay: as above
T6 construct: Bought protein

[8] = molecular target: T7, human BAFF (10056-HNCH, Sino biological) (human, UniProt Q9Y275 134-285); assay: ELISA, BAFF coated
T7 construct: Bought protein

IC50 (nM) for the inhibition of IL-23-induced IL-17 secretion [1]: 2.49 nM | EC50 [2]: 0.786 nM | IC50 [3]: 2.08 nM | binding result [4]: no binding | Kd [5]: 0.0844 nM | koff [5]: 0.000107 s⁻¹ | kon [5]: 1.26e+06 M⁻¹ s⁻¹ | Kd [6]: 0.0387 nM | koff [6]: 0.00018 s⁻¹ | kon [6]: 4.66e+06 M⁻¹ s⁻¹ | Kd [7]: 0.254 nM | koff [7]: 0.000236 s⁻¹ | kon [7]: 931000 M⁻¹ s⁻¹ | binding result [8]: no binding
B1: Ustekinumab (antibody, human IgG1, kappa, V domains shown)
VH: EVQLVQSGAEVKKPGESLKISCKGSGYSFTTYWLGWVRQMPGKGLDWIGIMSPVDSDIRYSPSFQGQVTMSVDKSITTAYLQWNSLKASDTAMYYCARRRPGQGYFDFWGQGTLVTVSS
VL: DIQMTQSPSSLSASVGDRVTITCRASQGISSWLAWYQQKPEKAPKSLIYAASSLQSGVPSRFSGSGSGTDFTLTISSLQPEDFATYYCQQYNIYPYTFGQGTKLEIKR
notes: Control antibody; also called anti-IL-12/IL-23 p40 subunit antibody ustekinumab
